Assay results: US11814435B2, “Therapeutic antibodies and their uses” (PFIZER INC., priority 2015, dated 2023)
Where a chain is given by its changes, count along the chain named.

B1: L3.PY/L3.KF/H3.YA: anti-BCMA antibody (antibody, V domains shown)
VH: EVQLLESGGGLVQPGGSLRLSCAASGFTFGSYAMTWVRQAPGKGLEWVSAISGSGGNTFYADSVKGRFTISRDNSKNTLYLQMNSLRAEDTAVYYCARVSPIYAGMDYWGQGTLVTVSS
VL: EIVLTQSPGTLSLSPGERATLSCRASQSVSSSYLAWYQQKPGQAPRLLIYGASSRATGIPDRFSGSGSGTDFTLTISRLEPEDFAVYYCKFYPYPPSFTFGQGTKVEIK
B2: L3.PY/L3.KF/H3.AE: anti-BCMA antibody (antibody, V domains shown)
VH: B1 VH with Y103A, G105E
VL: B1 VL
B3: L3.PY/L3.KF/H3.TAQ: anti-BCMA antibody (antibody, V domains shown)
VH: B1 VH with A97T, Y103A, G105Q
VL: B1 VL
B4: L1.LGF/L3.KW/H3.AL: anti-BCMA antibody (antibody, V domains shown)
VH: B1 VH with Y103A, G105L
VL: B1 VL with V29L, S30G, S32F, F91H, P93G, Y94W
B5: L1.LGF/L3.KW/H3.AP: anti-BCMA antibody (antibody, V domains shown)
VH: B1 VH with Y103A, G105P
VL: B1 VL with V29L, S30G, S32F, F91H, P93G, Y94W
B6: L1.LGF/L3.PY/H3.AP: anti-BCMA antibody (antibody, V domains shown)
VH: B1 VH with Y103A, G105P
VL: B1 VL with V29L, S30G, S32F, K90Q, F91H
B7: L1.LGF/L3.NY/H3.AL: anti-BCMA antibody (antibody, V domains shown)
VH: B1 VH with Y103A, G105L
VL: B1 VL with V29L, S30G, S32F, K90Q, F91H, P93N
B8: L1.LGF/L3.NY/H3.AP: anti-BCMA antibody (antibody, V domains shown)
VH: B1 VH with Y103A, G105P
VL: B1 VL with V29L, S30G, S32F, K90Q, F91H, P93N
B9: L1.GDF/L3.KW/H3.AL: anti-BCMA antibody (antibody, V domains shown)
VH: B1 VH with Y103A, G105L
VL: B1 VL with S30G, S31D, S32F, F91H, P93G, Y94W
B10: L1.GDF/L3.KW/H3.AP: anti-BCMA antibody (antibody, V domains shown)
VH: B1 VH with Y103A, G105P
VL: B1 VL with S30G, S31D, S32F, F91H, P93G, Y94W
B11: L1.GDF/L3.NY/H3.AL: anti-BCMA antibody (antibody, V domains shown)
VH: B1 VH with Y103A, G105L
VL: B1 VL with S30G, S31D, S32F, K90Q, F91H, P93N
B12: L1.GDF/L3.NY/H3.AP: anti-BCMA antibody (antibody, V domains shown)
VH: B1 VH with Y103A, G105P
VL: B1 VL with S30G, S31D, S32F, K90Q, F91H, P93N
B13: L3.PY/H2.QR: anti-BCMA antibody (antibody, V domains shown)
VH: B1 VH with S63Q, V64R, Y103A, A104S
VL: B1 VL with K90Q, F91H
B14: L3.PY/H2.DY: anti-BCMA antibody (antibody, V domains shown)
VH: B1 VH with S52D, G53Y, Y103A, A104S
VL: B1 VL with K90Q, F91H
B15: L3.PY/H2.YQ: anti-BCMA antibody (antibody, V domains shown)
VH: B1 VH with G53Y, S54Q, Y103A, A104S
VL: B1 VL with K90Q, F91H
B16: L3.PY/H2.LT: anti-BCMA antibody (antibody, V domains shown)
VH: B1 VH with G53L, S54T, Y103A, A104S
VL: B1 VL with K90Q, F91H
B17: L3.PY/H2.HA: anti-BCMA antibody (antibody, V domains shown)
VH: B1 VH with G53H, S54A, Y103A, A104S
VL: B1 VL with K90Q, F91H

Experiments:
hBCMA (human BCMA) = biological target: T1, hBCMA (human BCMA) (Homo sapiens, UniProt Q02223); assay: Kinetics and affinity of hBCMA/human IgG interactions by SPR (Bio-Rad Proteon XPR36); assay type: binding; settings: huBCMA
T1 sequence (Q02223 1-184): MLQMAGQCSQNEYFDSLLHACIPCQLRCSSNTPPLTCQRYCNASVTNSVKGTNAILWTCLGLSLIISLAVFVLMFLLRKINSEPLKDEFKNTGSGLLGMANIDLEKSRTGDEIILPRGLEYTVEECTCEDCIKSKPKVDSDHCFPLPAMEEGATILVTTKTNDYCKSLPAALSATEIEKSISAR
Description: All experiments were performed on a Bio-Rad Proteon XPR36 surface Plasmon resonance biosensor (Bio-Rad, Hercules, Calif.). An array of anti-BCMA antibodies was prepared using an amine-coupling method on a Bio-Rad GLC Sensor Chip similar to that described in Abdiche, et al., Anal. Biochem. 411, 139-151 (2011). The analysis temperature for the immobilization was 25° C. and the running buffer was HBS-T+(10 mM HEPES, 150 mM NaCl, 0.05% Tween-20, pH 7.4). Channels were activated in the analyte (horizontal) direction by injecting a mixture of 1 mM ECD and 0.25 mM NHS for 3 minutes at a flow rate of 30 μL/min. IgGs were immobilized on the activated spots by injecting them in the ligand (vertical) direction at 20 μg/mL in 10 mM Acetate pH 4.5 buffer for 1.5 minutes at […]. The activated surfaces were blocked by injecting 1M ethanolamine, pH 8.5 in the analyte direction for 3 minutes at 30 μL/min.
The analysis temperature for the hBCMA binding analysis was 37° C. or 25° C. in a running buffer of HBS-T+, supplemented with 1 mg/mL BSA. A kinetic titration method was employed for the interaction analysis as described in Abdiche, et al. The hBCMA (human BCMA) analyte was injected in the analyte direction using a series of injections from low to high concentration. The concentrations used were 0.08 nM, 0.4 nM, 2 nM, 10 nM and 50 nM (a 5-membered series, with a 5-fold dilution factor and top concentration of 50 nM). The association time for a given analyte dilution was two minutes. Immediately after the 50 nM hBCMA injection, dissociation was monitored for 2 hours. Prior to the hBCMA analyte injections, buffer was injected 5 times using the same association and dissociation times at the hBCMA analyte cycles to prepare a buffer blank sensorgram for double-referencing purposes (double referencing as described in Myszka, J. Mol. Recognit. 12, 279-284 (1999).
The sensorgrams were double-referenced and fit to a 1:1 Langmuir with mass transport kinetic titration model in BIAevaluation Software version 4.1.1 (GE Lifesciences, Piscataway, N.J.). The sensorgrams and fits are shown in FIG. 1, and the kinetics and affinity parameters for various anti-BCMA antibodies of the present invention are shown in Tables 6A-6C.

cyBCMA = assay: Kinetics and affinity of cyBCMA/human IgG interactions by SPR (Bio-Rad Proteon XPR36); assay type: binding, cynomolgus

Row | Molecule | ka (1/Ms) huBCMA @ 37° C. (hBCMA (human BCMA)) | kd (1/s) huBCMA @37° C. (hBCMA (human BCMA)) | ka (1/Ms) cyBCMA @ 37° C. (cyBCMA) | kd (1/s) cyBCMA @37° C. (cyBCMA) | ka (1/Ms) huBCMA @ 25° C. (hBCMA (human BCMA)) | kd (1/s) huBCMA @25° C. (hBCMA (human BCMA)) | ka (1/Ms) cyBCMA @ 25° C. (cyBCMA) | kd (1/s) cyBCMA @25° C. (cyBCMA)
1 | B1 | 3.12e+06 M⁻¹ s⁻¹ | 0.00147 s⁻¹ | 2.1e+06 M⁻¹ s⁻¹ | 0.00796 s⁻¹ | – | – | – | –
2 | B2 | 3.07e+06 M⁻¹ s⁻¹ | 0.00155 s⁻¹ | 1.85e+06 M⁻¹ s⁻¹ | 0.00564 s⁻¹ | – | – | – | –
3 | B3 | 2.82e+06 M⁻¹ s⁻¹ | 0.00162 s⁻¹ | 2.01e+06 M⁻¹ s⁻¹ | 0.00191 s⁻¹ | – | – | – | –
4 | B4 | – | – | – | – | 428000 M⁻¹ s⁻¹ | 0.00123 s⁻¹ | 290000 M⁻¹ s⁻¹ | 0.0121 s⁻¹
5 | B5 | – | – | – | – | 928000 M⁻¹ s⁻¹ | 0.00227 s⁻¹ | 554000 M⁻¹ s⁻¹ | 0.0154 s⁻¹
6 | B6 | – | – | – | – | 457000 M⁻¹ s⁻¹ | 0.000969 s⁻¹ | 364000 M⁻¹ s⁻¹ | 0.013 s⁻¹
7 | B7 | – | – | – | – | 763000 M⁻¹ s⁻¹ | 0.00097 s⁻¹ | 635000 M⁻¹ s⁻¹ | 0.0148 s⁻¹
8 | B8 | – | – | – | – | 936000 M⁻¹ s⁻¹ | 0.000533 s⁻¹ | 830000 M⁻¹ s⁻¹ | 0.00557 s⁻¹
9 | B9 | – | – | – | – | 445000 M⁻¹ s⁻¹ | 0.0039 s⁻¹ | 318000 M⁻¹ s⁻¹ | 0.018 s⁻¹
10 | B10 | – | – | – | – | 1.17e+06 M⁻¹ s⁻¹ | 0.00461 s⁻¹ | 814000 M⁻¹ s⁻¹ | 0.0203 s⁻¹
11 | B11 | – | – | – | – | 907000 M⁻¹ s⁻¹ | 0.00403 s⁻¹ | 900000 M⁻¹ s⁻¹ | 0.0219 s⁻¹
12 | B12 | – | – | – | – | 1.41e+06 M⁻¹ s⁻¹ | 0.00141 s⁻¹ | 1.36e+06 M⁻¹ s⁻¹ | 0.00702 s⁻¹
13 | B13 | 2.56e+06 M⁻¹ s⁻¹ | 0.00119 s⁻¹ | 2.18e+06 M⁻¹ s⁻¹ | 0.00658 s⁻¹ | – | – | – | –
14 | B14 | 2.6e+06 M⁻¹ s⁻¹ | 0.00138 s⁻¹ | 2.24e+06 M⁻¹ s⁻¹ | 0.00618 s⁻¹ | – | – | – | –
15 | B15 | 2.58e+06 M⁻¹ s⁻¹ | 0.00156 s⁻¹ | 2.46e+06 M⁻¹ s⁻¹ | 0.00621 s⁻¹ | – | – | – | –
16 | B16 | 2.4e+06 M⁻¹ s⁻¹ | 0.00129 s⁻¹ | 2.09e+06 M⁻¹ s⁻¹ | 0.00757 s⁻¹ | – | – | – | –
17 | B17 | 2.43e+06 M⁻¹ s⁻¹ | 0.00147 s⁻¹ | 1.99e+06 M⁻¹ s⁻¹ | 0.00755 s⁻¹ | – | – | – | –
